B1: Chromodomain-helicase-DNA-binding protein 5, residues 411 to 463; numbered along this chain, Q8TDI0 (parent)
chain: EEDDHMEFCRVCKDGGELLCCDACPSSYHLHCLNPPLPEIPNGEWLCPRCTCP

Variants of: B1
Experiment: abundance fitness (aPCA) (normalised: wild type 0, dead -1); higher = more abundant; growth selection in yeast, the domain comes from the species named
Settings: Homo sapiens

Abundance fitness, by site and new letter:
N42: G 0.12, P 0.16, W -0.142, Y 0.059, I -0.346
G15: A 0.07, D 0.098, N -0.359, F 0.079, V -0.061
G43: S -0.008, C -0.112, E 0.003, F 0.149, D -0.238, P -0.041, K -0.037, T -0.142, R -0.074, N 0.039, M -0.333
L46: T -0.102, N 0.294, F 0.101, K 0.079, A -0.027
L18: A -0.769, P -0.91, S -0.754, C -0.288, I 0.035, R -0.084, E -0.812
N34: P -0.463, D -0.27, R -0.039, F 0.066, Y -0.139, A -0.018
E7: N -0.07, K -0.316, C 0.095, H -0.278, M -0.378, P -0.368, F -0.224, W -0.247, R -0.027, D 0.031, G -0.079
G16: N -0.369, L -0.28, K -0.482, A -0.629, P -0.832, V -0.36
L19: Y 0.099, G -0.571, T -0.169
P41: N 0.168, R -0.004, A -0.144, M -0.262, V 0.043, G 0.064
C50: H 0.008, M -0.77, N -0.591, W -0.477, F -0.756
E44: K 0.102, P -0.071, H 0.056, M -0.312, D 0.051
E17: Y -0.272, W -0.458, G -0.171, Q 0.032, C -0.187, L -0.27, D -0.276
C9: K -0.438, D -0.595, V -1.09, F -0.715, I -1.05, N -0.735
C24: E -0.564, M -0.781, I -0.886, N -0.904, K -0.437, H 0.139, P -0.791, V -0.589
L30: Q 0.016, P 0.087, K -0.043, F -0.06, Y -0.019, I -0.002, V 0.019, D -0.013
S26: L 0.001, I -0.08, D 0.011, Q -0.387, T 0.002
L37: R -0.006, N -0.229, H 0.268, I -0.023, G -0.232, K -0.201, W -0.109, Y -0.109, Q -0.028
M6: L -0.121, T 0.136, F 0.084, V -0.077, H -0.279, D -0.228, E -0.14, K 0.172
C32: V -0.963, M -0.736, Q -0.72, G -0.985
E39: Q 0.008, S 0.091, G -0.135, C -0.438, I -0.138, V 0.025, Y -0.329
R10: L -0.06, D -0.119, F 0.178
P48: C 0.023, Q -0.09, S -0.025, H 0.014, Y -0.149
L33: M -0.235, W -0.594, F -0.209, H -0.706, E -0.452, C -0.125
P53: L 0.13
R49: D 0.101, A -0.017, W -0.073, S 0.04
C12: Q -0.938, V -0.828, W -0.552, G -0.66, I -0.601, N -0.852, R -0.783
D4: F 0.263, N 0.288, H 0.17, G -0.425, R 0.048, I 0.184, C 0.203, E -0.131
P36: K 0.088, F -0.091, S -0.023, E -0.194, V 0.066, N -0.591, I 0.125, D -0.068, L -0.215
H31: K -0.029, M -0.088, D 0.072, C -0.421, N 0.121, Y -0.455, F 0.516, T -0.16, E 0.074, V -0.268, A -0.092, I -0.044
C21: R -1.09, F -0.844, P -0.483, Y -0.946, T -1, Q -0.633, H -0.773, A -0.83
D22: W -0.082, F -0.139, E 0.061, G 0.049, H 0.005, S 0.034, K 0.108, L -0.026
C47: M -0.906, P -0.899, D -0.678
S27: N 0.02, C -0.035, G -0.168, R -0.056, E -0.212, F 0.152
A23: L 0.068, D -0.082, C -0.018, H 0.088, S 0.301, W -0.043
P38: Y 0.17, T -0.198, L 0.263
K13: H -0.265, C 0.021, S -0.309, F -0.546, N 0.075, T -0.311, I -0.644, L -0.206, G -0.008
C20: V 0.007, F -0.05, M -0.017, W -0.029, T 0.123, I 0.073, E -0.049, P 0.146
W45: L -0.52, H -0.512, C -0.604, D -0.761, M -0.491
V11: Y -0.056, W -0.193, K 0.122, N -0.131, Q -0.012, F -0.111, A -0.276, E 0.18
D3: R 0.14, E 0.136, V 0.114, N 0.168, T 0.205, Y 0.189, C -0.763, A 0.028
I40: S -0.058, E -0.129, L 0.147
F8: D -0.138, E -0.135, I -0.347, R -0.051
P25: V 0.03, E 0.054, I -0.04, K 0.058, N -0.025, M -0.11, Q -0.118, H 0.024, Y 0.023, F -0.094, R 0.087
E2: Q -0.224, W -0.314, H -0.261, P -0.228, G -0.131, L -0.038, S -0.062
H29: Y -0.652, F -0.765, P -0.732
P35: S -0.23, V -0.145, L -0.315, A -0.299, W -0.404, D -0.246, N -0.172
T51: F -0.142, N 0.018, S -0.089, M -0.296, E -0.027
E1: G -0.304, P -0.803, A -0.518, D -0.455
Y28: P -0.565, M -0.262, Q -0.454, N -0.608
C52: V 0.062, Y -0.295, E 0.126, L 0.018, S 0.138, H 0.189, A 0.067, Q -0.121, N 0.222
D14: W -0.232, P -0.984, I -0.519, L -0.153, K -0.133
H5: Y -0.058, N 0.117, I -0.02, C -0.319, L -0.223, W -0.214, V -0.5, T -0.065
